Test results from US20220227830A1, “QD DOSING OF GIP RECEPTOR AGONIST PEPTIDE COMPOUNDS AND USES THEREOF” (Takeda Pharmaceutical Company Limited, priority 2020, published 2022).
Starred links: 1 amine or outer side, 2 acyl side, 3 side chain; linkers in the order of their positions; H or OH if unused. Non-standard residues stand in square brackets, D forms with d. Groups on a side chain read outwards from the residue. No end group written: not given here. *: point of attachment. 2OEGgEgE‑C15DA = 2OEGgEgE-C15 diacid linker-lipid on the Lys side chain, O=C(O)CCCCCCCCCCCCCC(=O)N[C@@H](CCC(=O)N[C@@H](CCC(=O)NCCOCCOCC(=O)NCCOCCOCC(=O)*)C(=O)O)C(=O)O; GGEEE‑C15DA = Gly-Gly-Glu-Glu-Glu linker (GGEEE) joined to a C15 diacid lipid (C15DA), on the Lys side chain; 2OEGgE‑C16DA = O=C(O)CCCCCCCCCCCCCCC(=O)N[C@@H](CCC(=O)NCCOCCOCC(=O)NCCOCCOCC(=O)*)C(=O)O; C16 diacid = O=C(O)CCCCCCCCCCCCCCC(=O)*; C15 diacid = O=C(O)CCCCCCCCCCCCCC(=O)*; γGlu = O=C(O)[C@H](CCC(=O)[*:2])N[*:1]; NMeY = CN[C@@H](Cc1ccc(O)cc1)C(=O)O; AEEA = NCCOCCOCC(=O)O; Aib = CC(C)(N)C(=O)O

Columns and labels:
[1] = biological target: T1, full-length human GIPR with an N-terminal FLAG tag (human, UniProt P48546 22-466); test: cell-based or functional assay
T1 sequence (looked up): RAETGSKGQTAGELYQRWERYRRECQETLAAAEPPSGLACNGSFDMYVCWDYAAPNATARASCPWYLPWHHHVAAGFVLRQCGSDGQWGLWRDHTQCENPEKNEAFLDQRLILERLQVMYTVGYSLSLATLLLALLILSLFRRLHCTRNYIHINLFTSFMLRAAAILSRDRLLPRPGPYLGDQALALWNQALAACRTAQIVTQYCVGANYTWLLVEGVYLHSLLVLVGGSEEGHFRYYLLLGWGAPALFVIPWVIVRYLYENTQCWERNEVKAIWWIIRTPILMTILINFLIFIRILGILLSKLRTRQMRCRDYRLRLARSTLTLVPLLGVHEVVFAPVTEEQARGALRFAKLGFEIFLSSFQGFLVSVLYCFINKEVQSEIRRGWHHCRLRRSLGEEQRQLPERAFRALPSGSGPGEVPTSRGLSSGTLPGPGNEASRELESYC

[2] = biological target: full-length human GLP-1R with an N-terminal FLAG tag (human, UniProt P43220 24-463); test: cell-based or functional assay

Row | Binder | Human GIPR cAMP, HEK293T EC50 [1] | Human GLP1R cAMP HEK293T EC50 [2]
1 | [NMeY][Aib]EGTFISDYSIAK([G5-γGlu-C15 diacid])DR[Aib]AQ[Aib]DFVNWLLAQRGGGGS-NH2 [Compound 97] | 0.0002 nM | 490 nM
2 | [NMeY][Aib]EGTFISDYSI[Aib]LDR[Aib]AQ[Aib]K(2OEGgEgE‑C15DA)FVNWLLAQSPSSGAPPPS-NH2 (N-terminus assumed; SMILES CC[C@H](C)[C@H](NC(=O)[C@H](Cc1ccccc1)NC(=O)[C@@H](NC(=O)CNC(=O)[C@H](CCC(=O)O)NC(=O)C(C)(C)NC(=O)[C@H](Cc1ccc(O)cc1)NC)[C@@H](C)O)C(=O)N[C@@H](CO)C(=O)N[C@@H](CC(=O)O)C(=O)N[C@@H](Cc1ccc(O)cc1)C(=O)N[C@@H](CO)C(=O)N[C@H](C(=O)NC(C)(C)C(=O)N[C@@H](CC(C)C)C(=O)N[C@@H](CC(=O)O)C(=O)N[C@@H](CCCNC(=N)N)C(=O)NC(C)(C)C(=O)N[C@@H](C)C(=O)N[C@@H](CCC(N)=O)C(=O)NC(C)(C)C(=O)N[C@@H](CCCCNC(=O)COCCOCCNC(=O)COCCOCCNC(=O)CC[C@H](NC(=O)CC[C@H](NC(=O)CCCCCCCCCCCCCC(=O)O)C(=O)O)C(=O)O)C(=O)N[C@@H](Cc1ccccc1)C(=O)N[C@H](C(=O)N[C@@H](CC(N)=O)C(=O)N[C@@H](Cc1c[nH]c2ccccc12)C(=O)N[C@@H](CC(C)C)C(=O)N[C@@H](CC(C)C)C(=O)N[C@@H](C)C(=O)N[C@@H](CCC(N)=O)C(=O)N[C@@H](CO)C(=O)N1CCC[C@H]1C(=O)N[C@@H](CO)C(=O)N[C@@H](CO)C(=O)NCC(=O)N[C@@H](C)C(=O)N1CCC[C@H]1C(=O)N1CCC[C@H]1C(=O)N1CCC[C@H]1C(=O)N[C@@H](CO)C(N)=O)C(C)C)[C@@H](C)CC) [Compound 103] | 0.0005 nM | 148 nM
3 | [NMeY][Aib]EGTFISDYSI[Aib]LDR[Aib]AQ[Aib]DFVNWLLAQK(2OEGgE‑C15DA)PSSGAPPPS-NH2 [Compound 100] | 0.0007 nM | 1000 nM
4 | [NMeY][Aib]EGTFISDYSIALDRK([AEEA-AEEA-γGlu-C15 diacid])AQ[Aib]DFVNWLLAQRPSSGAPPPS-NH2 [Compound 104] | 0.0004 nM | 1000 nM
5 | [NMeY][Aib]EGTFISDYSIALDR[Aib]K(GGEEE‑C15DA)Q[Aib]NFVNWLLAQSPSSGAPPPS-NH2 [Compound 105] | 0.0003 nM | 1000 nM
6 | [NMeY][Aib]EGTFISDYSIALDR[Aib]AQ[Aib]KFVNWLLAQRGGGGS-NH2 (not fully specified (residue 21)) [Compound 96] | 0.0004 nM | 89.1 nM
7 | [NMeY][Aib]EGTFISDYSI[Aib]LDR[Aib]AQ[Aib]K(2OEGgE‑C15DA)FVNWLLAQSPSSGAPPPS-NH2 [Compound 102] | 0.0005 nM | 31.6 nM
8 | [NMeY][Aib]EGTFISDYSIALDR[Aib]AQ[Aib]DFVNWLLAK([AEEA-AEEA-γGlu-C15 diacid])SPSSG-NH2 (N-terminus assumed; SMILES CC[C@H](C)[C@H](NC(=O)[C@H](CO)NC(=O)[C@H](Cc1ccc(O)cc1)NC(=O)[C@H](CC(=O)O)NC(=O)[C@H](CO)NC(=O)[C@@H](NC(=O)[C@H](Cc1ccccc1)NC(=O)[C@@H](NC(=O)CNC(=O)[C@H](CCC(=O)O)NC(=O)C(C)(C)NC(=O)[C@H](Cc1ccc(O)cc1)NC)[C@@H](C)O)[C@@H](C)CC)C(=O)N[C@@H](C)C(=O)N[C@@H](CC(C)C)C(=O)N[C@@H](CC(=O)O)C(=O)N[C@@H](CCCNC(=N)N)C(=O)NC(C)(C)C(=O)N[C@@H](C)C(=O)N[C@@H](CCC(N)=O)C(=O)NC(C)(C)C(=O)N[C@@H](CC(=O)O)C(=O)N[C@@H](Cc1ccccc1)C(=O)N[C@H](C(=O)N[C@@H](CC(N)=O)C(=O)N[C@@H](Cc1c[nH]c2ccccc12)C(=O)N[C@@H](CC(C)C)C(=O)N[C@@H](CC(C)C)C(=O)N[C@@H](C)C(=O)N[C@@H](CCCCNC(=O)COCCOCCNC(=O)COCCOCCNC(=O)CC[C@H](NC(=O)CCCCCCCCCCCCCC(=O)O)C(=O)O)C(=O)N[C@@H](CO)C(=O)N1CCC[C@H]1C(=O)N[C@@H](CO)C(=O)N[C@@H](CO)C(=O)NCC(N)=O)C(C)C) [Compound 98] | 0.0006 nM | 1000 nM
9 | [NMeY][Aib]EGTFISDYSIALDR[Aib]AQ[Aib]DFVNWLLAK(2OEGgE‑C15DA)RPSSGAPPPS-NH2 [Compound 109] | 0.0005 nM | 832 nM
10 | [NMeY][Aib]EGTFISDYSIALDRIHQ[Aib]K([AEEA-AEEA-γGlu-C16 diacid])FVNWLLAQK [Compound 9] | 0.0002 nM | 95.5 nM
11 | [NMeY][Aib]EGTFISDYSIALDR[Aib]AQ[Aib]NFVNWLLAQK(2OEGgEgE‑C15DA)PSSGAPPPS-NH2 (N-terminus assumed; SMILES CC[C@H](C)[C@H](NC(=O)[C@H](CO)NC(=O)[C@H](Cc1ccc(O)cc1)NC(=O)[C@H](CC(=O)O)NC(=O)[C@H](CO)NC(=O)[C@@H](NC(=O)[C@H](Cc1ccccc1)NC(=O)[C@@H](NC(=O)CNC(=O)[C@H](CCC(=O)O)NC(=O)C(C)(C)NC(=O)[C@H](Cc1ccc(O)cc1)NC)[C@@H](C)O)[C@@H](C)CC)C(=O)N[C@@H](C)C(=O)N[C@@H](CC(C)C)C(=O)N[C@@H](CC(=O)O)C(=O)N[C@@H](CCCNC(=N)N)C(=O)NC(C)(C)C(=O)N[C@@H](C)C(=O)N[C@@H](CCC(N)=O)C(=O)NC(C)(C)C(=O)N[C@@H](CC(N)=O)C(=O)N[C@@H](Cc1ccccc1)C(=O)N[C@H](C(=O)N[C@@H](CC(N)=O)C(=O)N[C@@H](Cc1c[nH]c2ccccc12)C(=O)N[C@@H](CC(C)C)C(=O)N[C@@H](CC(C)C)C(=O)N[C@@H](C)C(=O)N[C@@H](CCC(N)=O)C(=O)N[C@@H](CCCCNC(=O)COCCOCCNC(=O)COCCOCCNC(=O)CC[C@H](NC(=O)CC[C@H](NC(=O)CCCCCCCCCCCCCC(=O)O)C(=O)O)C(=O)O)C(=O)N1CCC[C@H]1C(=O)N[C@@H](CO)C(=O)N[C@@H](CO)C(=O)NCC(=O)N[C@@H](C)C(=O)N1CCC[C@H]1C(=O)N1CCC[C@H]1C(=O)N1CCC[C@H]1C(=O)N[C@@H](CO)C(N)=O)C(C)C) [Compound 101] | 0.0002 nM | 550 nM
12 | [NMeY][Aib]EGTFISDYSIALDRIHQ[Aib]NFVNWLLK(2OEGgE‑C16DA)QK [Compound 10] | 0.0006 nM | 955 nM
13 | [NMeY][Aib]EGTFISDYSIAK([GGEEE-C15 diacid])DR[Aib]AQ[Aib]NFVNWLLAQRPSSGAPPPS-NH2 [Compound 99] | 0.0002 nM | 1000 nM
14 | [NMeY][Aib]EGTFISDYSIALDR[Aib]KQ[Aib]DFVNWLLAQSPSSGAPPPS-NH2 (not fully specified (residue 18, N-terminus)) [Compound 106] | 0.0005 nM | 120 nM
15 | [NMeY][Aib]EGTFISDYSI[Aib]LDR[Aib]AQ[Aib]K(2OEGgEgE‑C15DA)FVNWLLAQR-NH2 (N-terminus assumed; SMILES CC[C@H](C)[C@H](NC(=O)[C@H](Cc1ccccc1)NC(=O)[C@@H](NC(=O)CNC(=O)[C@H](CCC(=O)O)NC(=O)C(C)(C)NC(=O)[C@H](Cc1ccc(O)cc1)NC)[C@@H](C)O)C(=O)N[C@@H](CO)C(=O)N[C@@H](CC(=O)O)C(=O)N[C@@H](Cc1ccc(O)cc1)C(=O)N[C@@H](CO)C(=O)N[C@H](C(=O)NC(C)(C)C(=O)N[C@@H](CC(C)C)C(=O)N[C@@H](CC(=O)O)C(=O)N[C@@H](CCCNC(=N)N)C(=O)NC(C)(C)C(=O)N[C@@H](C)C(=O)N[C@@H](CCC(N)=O)C(=O)NC(C)(C)C(=O)N[C@@H](CCCCNC(=O)COCCOCCNC(=O)COCCOCCNC(=O)CC[C@H](NC(=O)CC[C@H](NC(=O)CCCCCCCCCCCCCC(=O)O)C(=O)O)C(=O)O)C(=O)N[C@@H](Cc1ccccc1)C(=O)N[C@H](C(=O)N[C@@H](CC(N)=O)C(=O)N[C@@H](Cc1c[nH]c2ccccc12)C(=O)N[C@@H](CC(C)C)C(=O)N[C@@H](CC(C)C)C(=O)N[C@@H](C)C(=O)N[C@@H](CCC(N)=O)C(=O)N[C@@H](CCCNC(=N)N)C(N)=O)C(C)C)[C@@H](C)CC) [Compound 108] | 0.0005 nM | 41.7 nM
